# In article PMC5812316 (Biophysics and Physicobiology, 2018):
# Substitutions are numbered along the chain they refer to. Numbers in names are those of the source.
# B1: Photozipper variant E159K (domain or fragment)
# chain: GSISSELTEAQKVERRERNREHAKRSRVRKKFLLESLQQSVNELNHKNNSLKESIREHLGPRGDSLIAQSSPEADTLLTDNPSKANRILEDPDYSLVKALQMAQQNFVITDASLPDNPIVYASRGFLTLTGYSLDQILGRNCRFLQGPETDPRAVDKIRNAITKGVDTSVCLLNYRQDGTTFWNLFFVAGLRDSKGNIVNYVGVQSKVSEDYAKLLVNEQNIEYKGVRTSNMLRRK
# B2: Photozipper variant K164E (domain or fragment)
# chain: B1 chain with K47E, K52E
# B3: Photozipper variant E159R/K164R (domain or fragment)
# chain: B1 chain with K47R, K52R
# Target: the molecule itself
# Test: SEC
row,Protein,stoichiometry N
1,B1,2
2,B2,2
3,B3,2
